Results: PMC12636710

Experiments:
[1] = target: human apolipoprotein E, apoE4 isoform (ε4 allele) (human) (UniProt P02649); test: co-IP
[2] = target: prion protein (PrP) (mouse (endogenous in brain of APOE-TR mice)) (UniProt P04925); test: velocity sedimentation in a sucrose gradient

Sequence of human apolipoprotein E, apoE4 isoform (ε4 allele) (human) (P02649 19-317): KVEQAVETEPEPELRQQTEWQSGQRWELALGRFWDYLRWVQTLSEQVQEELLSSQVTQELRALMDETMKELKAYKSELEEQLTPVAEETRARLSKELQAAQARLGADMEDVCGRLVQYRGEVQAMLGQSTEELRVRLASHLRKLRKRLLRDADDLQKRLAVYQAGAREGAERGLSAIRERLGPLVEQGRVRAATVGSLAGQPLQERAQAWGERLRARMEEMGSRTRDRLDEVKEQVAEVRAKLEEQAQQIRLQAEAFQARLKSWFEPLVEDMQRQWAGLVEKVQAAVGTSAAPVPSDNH
Sequence of prion protein (PrP) (P04925 23-230): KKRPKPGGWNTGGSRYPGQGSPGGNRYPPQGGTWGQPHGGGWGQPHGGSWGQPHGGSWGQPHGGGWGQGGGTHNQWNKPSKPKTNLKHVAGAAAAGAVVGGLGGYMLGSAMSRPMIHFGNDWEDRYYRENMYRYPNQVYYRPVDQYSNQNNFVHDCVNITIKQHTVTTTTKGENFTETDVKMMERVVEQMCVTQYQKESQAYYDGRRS
Sequence of prion protein (PrP), P04925 23-230 (natural protein; other documents disagree on this pair) (P04925 23-230): as above

| Substance | fold PrP/apoE OD ratio in the immunoprecipitate against ε2/ε2 22L mice [1] [fold] | fold PrP/apoE OD ratio in the immunoprecipitate against ε3/ε3 22L mice [1] [fold] | stoichiometry N [2] |
| --- | --- | --- | --- |
| prion protein (PrP) (from UniProt P04925 23-230) (natural protein) | 2.8 | 1.7 |  |
| prion protein (PrP), P04925 23-230 (natural protein; other documents disagree on this pair) |  |  | > 10 |
